System: CC(=O)O[C@H]1C(=O)[C@@]2(C)[C@H]([C@H](OC(=O)c3ccccc3)[C@]3(O)C[C@H](OC(=O)[C@H](O)[C@@H](NC(=O)c4ccccc4)c4ccccc4)C(C)=C1C3(C)C)[C@]1(OC(C)=O)CO[C@@H]1C[C@@H]2O
Assay: TP_TRANSPORTER: transepithelial transport (basal to apical) in Caco-2 cells
Type: functional, cell-based

Question: With “ATP-dependent translocase ABCB1 (Homo sapiens)” as the substance, how does the Km read?
Answer: 16.5 µM

Source: ChEMBL document CHEMBL2074420, “Taxol transport by human intestinal epithelial Caco-2 cells” (Drug Metab Dispos, 1998)
